Sequences and labels used below:
B1: LINE1-full (parent)
chain: UACGUAGGUGGUUUUCCCCUGAUAGUGCUAAGGGGGCCUGGAAGUUUGGACUGGGCAGAGCUCAACACAGCGUGGCAAAGUGGCUGUGGCUAGACUGCCUCUCUGGAUUCCUCGUCACUCAGCAGGGCAUCUCUGAGAGAAAUGCC

Variants of B1 are the subject of this data set. The experiment in a line: self-cleavage, relative activity (ratio to wild type); higher = more cleavage; in vitro, sequencing; the parent is a self-cleaving ribozyme.
Regarding G72U C76U, the self-cleavage was found to be 2.1.

As to U73C C103U, the self-cleavage is 1.61.

G74U A141G: the self-cleavage stood at 1.68.

Turning to G75C U109C, the self-cleavage worked out at 0.62.

In the case of G74A A121U, the self-cleavage amounted to 1.07.

On to A69U U134C, for which the self-cleavage came to 0.09.

For G75U U115A, the self-cleavage is 1.06.

With U73G U109C, the self-cleavage amounted to 1.07.

For G72A A124G, the self-cleavage was 0.52.

As for G72A A124U, the self-cleavage is 1.22.

In the case of U73G U112G, the self-cleavage amounted to 0.

Turning to U73A U112C, the self-cleavage is 1.56.

With U73A U112A, the self-cleavage is 2.03.

With U73A U112G, the self-cleavage worked out at 1.53.

In the case of C71A U134A, the self-cleavage was 0.18.

As to C71A A117G, the self-cleavage came out at 0.15.

As to C76A U81G, the self-cleavage is 0.33.

For C76A U81C, the self-cleavage came out at 1.46.

Turning to U73C A124U, the self-cleavage is 1.5.

On to U73C A124G, for which the self-cleavage worked out at 0.64.

In the case of U73G A77U, the self-cleavage was found to be 1.14.

For the variant G70U U81C, the self-cleavage was found to be 0.3.

Regarding U73C G144A, the self-cleavage turned out to be 1.77.

In the case of G70A A92G, the self-cleavage was determined as 0.04.

Take G75A U87G: the self-cleavage amounted to 0.18.

Regarding G74U U102A, the self-cleavage worked out at 1.79.

Consider C76U A117C, for which the self-cleavage was found to be 2.66.

Take C76U A117G: the self-cleavage worked out at 2.24.

For A69U U73A, the self-cleavage is 0.04.

Regarding A69U U73C, the self-cleavage came to 0.05.

A69U U73G: the self-cleavage was 0.31.

Take C71U U85A: the self-cleavage stood at 0.03.

With C71U U85C, the self-cleavage came to 0.06.

U73A U91A: the self-cleavage was 0.72.

Consider U73A U108A, for which the self-cleavage stood at 1.42.

Turning to C71G A124G, the self-cleavage is 0.25.

C71A U96A: the self-cleavage turned out to be 0.09.

Consider U73C G74A, for which the self-cleavage is 2.38.

Take G74A A77G: the self-cleavage was 1.35.

On to C71U U81A, for which the self-cleavage was found to be 0.88.

On to C71U U81C, for which the self-cleavage was found to be 0.74.

As for U73A G122A, the self-cleavage stood at 1.98.

U73C C133U: the self-cleavage was 1.97.

For the variant C71U U100A, the self-cleavage is 0.04.

On to C71U U100C, for which the self-cleavage was 1.31.

With G72A A140G, the self-cleavage is 1.16.

As to C71A A124G, the self-cleavage came out at 0.13.

Consider C76U A94G, for which the self-cleavage is 0.18.

With A69U U132A, the self-cleavage was 0.06.

For the variant A69U U132C, the self-cleavage is 0.07.

Take U73G U108A: the self-cleavage is 1.33.

Turning to G74C U132A, the self-cleavage came out at 1.46.

Consider U73G U143C, for which the self-cleavage was determined as 2.02.

For G70A A136G, the self-cleavage is 0.11.

Take C71G A136G: the self-cleavage was 0.28.

With C71U A129G, the self-cleavage was 0.91.

In the case of G75A U112A, the self-cleavage was determined as 0.91.

For the variant G74A U100C, the self-cleavage was 1.62.

For A69U U100C, the self-cleavage was 0.08.

Regarding G75A U143A, the self-cleavage is 1.53.

For G75A A141G, the self-cleavage is 1.16.

Regarding G72A A107G, the self-cleavage was determined as 1.36.

In the case of U73G A107U, the self-cleavage is 1.59.

Consider U73C A121U, for which the self-cleavage is 1.89.

On to U73G U96C, for which the self-cleavage was found to be 0.

For the variant U73C G127A, the self-cleavage came out at 1.7.

For the variant U73A A138G, the self-cleavage was 1.75.

In the case of U73A A138U, the self-cleavage is 1.72.

On to G75A U81C, for which the self-cleavage is 0.67.

With G72A C120U, the self-cleavage worked out at 1.31.

For the variant G72U C116A, the self-cleavage was 1.23.

Turning to G74A U85C, the self-cleavage amounted to 0.06.

As to G70U A79G, the self-cleavage was 0.03.

Regarding G70U A121G, the self-cleavage stood at 0.27.

With G72C A94G, the self-cleavage is 0.18.

As for G74A G89A, the self-cleavage was found to be 0.03.

With G75A A107G, the self-cleavage stood at 1.66.

For C76G A78G, the self-cleavage came out at 1.7.

On to C71U U130A, for which the self-cleavage is 1.

As for G74A U112C, the self-cleavage came to 0.66.

Take G75C A142U: the self-cleavage turned out to be 0.66.

In the case of G74A U87C, the self-cleavage was found to be 0.08.

Turning to U73C U102C, the self-cleavage was 1.11.

As for C71U A138G, the self-cleavage is 1.21.

Take U73C G86A: the self-cleavage is 0.14.

In the case of G75A U119C, the self-cleavage stood at 1.5.

For C71U U115A, the self-cleavage turned out to be 0.85.

Regarding C71A A140G, the self-cleavage amounted to 0.23.

For the variant G70U A138G, the self-cleavage stood at 0.1.

For U73A A117C, the self-cleavage is 1.99.

In the case of U73A A117G, the self-cleavage is 1.4.

For G74A A124U, the self-cleavage is 1.22.

Turning to G72A U109A, the self-cleavage was determined as 1.37.

Regarding U73C A79G, the self-cleavage came out at 1.79.

In the case of U73C U81C, the self-cleavage worked out at 1.47.

For U73A A124G, the self-cleavage came out at 1.03.

In the case of U73A A124C, the self-cleavage turned out to be 2.02.

As to U73A A77U, the self-cleavage came to 0.69.

Turning to G75A G135A, the self-cleavage amounted to 1.18.

For G72U A107C, the self-cleavage was 2.15.

Take U73A U87C: the self-cleavage amounted to 0.06.

Take G70A A140G: the self-cleavage came to 0.06.

With G70C U112C, the self-cleavage amounted to 0.14.

G70U U130C: the self-cleavage amounted to 0.08.

Consider G70A A124C, for which the self-cleavage amounted to 0.21.

Consider G72A U100C, for which the self-cleavage stood at 0.32.

For the variant G72A U100A, the self-cleavage was determined as 0.18.

On to U73C A94G, for which the self-cleavage worked out at 0.37.

U73G U81G: the self-cleavage came out at 1.05.

For the variant G72A A94G, the self-cleavage was 0.33.

G70A U91A: the self-cleavage was 0.1.

For the variant G72A A121G, the self-cleavage worked out at 1.02.

In the case of G72A A121U, the self-cleavage came out at 1.52.

As to U73G A140G, the self-cleavage is 1.21.

On to G74U U112C, for which the self-cleavage was 1.64.

In the case of G72A U132C, the self-cleavage amounted to 1.13.

As for U73A A94U, the self-cleavage amounted to 0.27.

In the case of C71G U130C, the self-cleavage is 0.45.

For the variant U73C C145U, the self-cleavage is 1.53.

As for G74A A141G, the self-cleavage was determined as 0.97.

With U73C A136U, the self-cleavage came out at 1.76.

With G72A G105U, the self-cleavage came out at 1.29.

As to G70A U134C, the self-cleavage was 0.15.

Consider C71U A79G, for which the self-cleavage is 0.2.

Regarding U73A C113A, the self-cleavage was 0.23.

G72A A142G: the self-cleavage is 1.27.

Regarding U73C A140G, the self-cleavage came out at 1.63.

As to U73C A140U, the self-cleavage turned out to be 1.85.

Turning to C71A A78G, the self-cleavage is 0.19.

U73A G135A: the self-cleavage is 1.66.

Take G72C U73C: the self-cleavage came out at 1.13.

As to G70A A107G, the self-cleavage stood at 0.08.

Take G75A A117C: the self-cleavage was found to be 1.31.

Turning to G72C U134A, the self-cleavage was 0.97.

As to U73C G105U, the self-cleavage was 1.32.

Take U73C G105A: the self-cleavage was 2.03.

Turning to G74U U143C, the self-cleavage was 1.48.

For the variant G74A C113A, the self-cleavage amounted to 0.85.

For G75C A138G, the self-cleavage amounted to 1.01.

On to G75A A94G, for which the self-cleavage came to 0.25.

As to G75A A94U, the self-cleavage was found to be 0.35.

For the variant U73A A129G, the self-cleavage came to 1.67.

Take U73A A129U: the self-cleavage is 1.7.

In the case of U73G U102A, the self-cleavage came out at 1.22.

Turning to U73A A140G, the self-cleavage worked out at 1.69.

C71A A77G: the self-cleavage is 0.18.

For the variant U73A A121G, the self-cleavage was 1.93.

For the variant U73A A121U, the self-cleavage turned out to be 1.28.

On to U73A U115C, for which the self-cleavage is 1.9.

Turning to U73C C110U, the self-cleavage came out at 2.11.

Consider U73C A107U, for which the self-cleavage is 2.22.

For U73A U81G, the self-cleavage worked out at 1.85.

Consider U73A U81C, for which the self-cleavage is 1.09.

Take G75A C123U: the self-cleavage was determined as 0.69.

As for G70A U73A, the self-cleavage came out at 0.09.

Regarding U73C C111U, the self-cleavage came out at 2.14.

In the case of U73C U115C, the self-cleavage was determined as 1.63.

In the case of G74A A136U, the self-cleavage amounted to 0.91.

With G74A A94G, the self-cleavage turned out to be 0.15.

As for G74A U104A, the self-cleavage was 0.75.

Take U73A U85A: the self-cleavage was 0.05.

As to U73A U85C, the self-cleavage worked out at 0.1.

For G72A A138G, the self-cleavage was found to be 1.51.

As for U73G U134C, the self-cleavage is 1.57.

Take A69U U130C: the self-cleavage turned out to be 0.05.

As for A69U U130A, the self-cleavage was determined as 0.09.

In the case of G72U A138G, the self-cleavage is 1.55.

These data come from the RNAGym collection of RNA variant scans (doi:10.7554/elife.90254).
